Experimental findings from patent publication US20250197820A1, “NUCLEIC ACID POLYMERASE AND ITS USE IN PRODUCING NON-DNA NUCLEOTIDE POLYMERS” (UNITED KINGDOM RESEARCH AND INNOVATION, priority 2021, published 2025) are described below.

Common to all, as to assay type: biochemical
Test [1] has as its target T1, 2M (Thermococcus gorgonarius, UniProt P56689, A485L/D141A/E143A/E664K/F545L/I521L/K592A/T541G/V93Q/Y409G).
T1 construct: made in house; host or cells: E. coli BL21 CodonPlus-RIL
The experiment in a line: Steady-state kinetics of single nucleotide incorporation by 2M. To be noted: single nucleotide incorporation from 2′OMe-RNA primer; for improvement of KM value compared to ATP: 50° C. As to the method:
Steady-state kinetic parameters for NTP incorporation by 2M were determined by performing initial velocity measurements of single incorporations of either ATP, 2′OMe-ATP, or MOE-ATP. To generate the 2′OMe-RNA/DNA substrate, a 20-mer 2′OMe-RNA primer FD was 5′ 6-carboxyfluorescein end-labeled and annealed to the 52-mer DNA template BFL770 (Supplementary Table 1) at a 1:1.2 molar ratio. The reactions were performed at 50° C. in a mixture containing 1× Thermopol buffer, 6 mM Mg^2+, 100 nM 2′OMe-RNA/DNA substrate, and at NTP concentrations ranging from 0.5-250 μM. Enzyme concentrations and reaction times were selected to maintain initial velocity conditions. The 25 μL reactions were stopped by addition of a quenching solution containing 100 mM EDTA, 80% deionized formamide, 0.25 mg/ml bromophenol blue and 0.25 mg/ml xylene cyanol. Moreover, less than 20% of the primers were extended as required for steady-state conditions.
Product and substrate were separated on a 22% denaturing (8 M urea) polyacrylamide gel. The resulting bands were quantified using a Cytiva Typhoon RGB imager in fluorescence mode. Steady-state kinetic parameters (KM, kcat) were determined by fitting the data to the Michaelis-Menten equation. The data are the means and standard error from three independent experiments.

The test system of test [2] is random N40 template Tag3.3-N40-Test2. The experiment in a line: Primer extension on random N40 template (denaturing PAGE, densitometry). The method, then: (§1) Analytical primer extension reactions were carried out in 1× Thermopol buffer (NEB) supplemented with MgSO4 (4 mM). Primer (100 nM) was extended on a template (200 nM) with appropriate nucleoside triphosphates (125-250 μM each) by purified polymerase (10-100 μg/mL) in a 10-μL reaction volume. Reactions were carried out at 65° C. Primer extension products were analysed via urea-PAGE. All extensions with MOE-NTPs on defined-sequence template TempNpure required post-synthesis template capture with a ten-fold excess of antisense template, Turbo DNase (Invitrogen) treatment, subsequent Proteinase K (NEB) treatment, and loading on the urea-PAGE gel with a ten-fold excess of antisense template. Primer extensions with MOE-NTPs on template sfGFP required polymerase concentrations of 500 μg/mL.

The test system of test [3] is template TempNpure. As to the kind of experiment: Primer extension on defined-sequence template (denaturing PAGE). The method, then:
as §1

Test [4] has as its system template sfGFP. As to the kind of experiment: Long-range synthesis of a GFP transcript. Particulars: 2′OMe-RNA primer Synth-out1mm. As to the method: as §1
[5] abbreviates: FIG. 1g, RNA/2′OMe-RNA primer A-Test2, full length +79 nt.
Setting [6] is: FIG. 3e, 2′OMe-RNA primer A-Test2, full length +79 nt.

`CO[C@@H]1[C@H](O)[C@@H](COP(=O)(O)OP(=O)(O)OP(=O)(O)O)O[C@H]1n1cnc2c(N)ncnc21` [2′OMe-ATP]: in test [1], the “Vmax/kcat values for incorporation” value is recorded as “essentially identical” and the “improvement of KM value compared to ATP” value is “approximately 5 fold”.
Regarding `COCCOC1C(O)C(COP(=O)(O)OP(=O)(O)OP(=O)(O)O)OC1n1cnc2c(N)ncnc21` (stereo not shown) [MOE-ATP], in test [1], the “Vmax/kcat values for incorporation” value is recorded as “essentially identical” and the “improvement of KM value compared to ATP” value is given as “approximately 5 fold”.

B1: TGLLK: Tgo: V93Q, D141A, E143A, Y409G, A485L, I521L, F545L, E664K; previously described parent polymerase (protein, UniProt P56689 1-773, looked up, variant V93Q D141A E143A Y409G A485L I521L F545L E664K)
DNA polymerase: MILDTDYITEDGKPVIRIFKKENGEFKIDYDRNFEPYIYALLKDDSAIEDVKKITAERHGTTVRVVRAEKVKKKFLGRPIEVWKLYFTHPQDQPAIRDKIKEHPAVVDIYEYDIPFAKRYLIDKGLIPMEGDEELKMLAFAIATLYHEGEEFAEGPILMISYADEEGARVITWKNIDLPYVDVVSTEKEMIKRFLKVVKEKDPDVLITYNGDNFDFAYLKKRSEKLGVKFILGREGSEPKIQRMGDRFAVEVKGRIHFDLYPVIRRTINLPTYTLEAVYEAIFGQPKEKVYAEEIAQAWETGEGLERVARYSMEDAKVTYELGKEFFPMEAQLSRLVGQSLWDVSRSSTGNLVEWFLLRKAYERNELAPNKPDERELARRRESYAGGYVKEPERGLWENIVYLDFRSLGPSIIITHNVSPDTLNREGCEEYDVAPQVGHKFCKDFPGFIPSLLGDLLEERQKVKKKMKATIDPIEKKLLDYRQRLIKILANSFYGYYGYAKARWYCKECAESVTAWGRQYLETTIREIEEKFGFKVLYADTDGFLATIPGADAETVKKKAKEFLDYINAKLPGLLELEYEGFYKRGFFVTKKKYAVIDEEDKITTRGLEIVRRDWSEIAKETQARVLEAILKHGDVEEAVRIVKEVTEKLSKYEVPPEKLVIYKQITRDLKDYKATGPHVAVAKRLAARGIKIRPGTVISYIVLKGSGRIGDRAIPFDEFDPAKHKYDAEYYIENQVLPAVERILRAFGYRKEDLRYQKTRQVGLGAWLKPKT
On to B1, for which the “densitometry of N40 synthesis yield, 2′OMe-RNA” value (from here on “densitometry … 2′OMe-RNA”) worked out at 0% in test [2] (setting [5]) and 1% in test [2] (setting [6]). The “densitometry of N40 synthesis yield, MOE-RNA” value in test [2] (setting [6]) stood at 0%. In addition, the “2′OMe-RNA synthesis activity (in words)” value in test [3] (denaturing PAGE) is reported as “comparatively inefficient”.

B2: 3M: Tgo polymerase as 2M but with E664R (SEQ ID NO: 4) (protein)
chain: MILDTDYITEDGKPVIRIFKKENGEFKIDYDRNFEPYIYALLKDDSAIEDVKKITAERHGTTVRVVRAEKVKKKFLGRPIEVWKLYFTHPQDQPAIRDKIKEHPAVVDIYEYDIPFAKRYLIDKGLIPMEGDEELKMLAFAIATLYHEGEEFAEGPILMISYADEEGARVITWKNIDLPYVDVVSTEKEMIKRFLKVVKEKDPDVLITYNGDNFDFAYLKKRSEKLGVKFILGREGSEPKIQRMGDRFAVEVKGRIHFDLYPVIRRTINLPTYTLEAVYEAIFGQPKEKVYAEEIAQAWETGEGLERVARYSMEDAKVTYELGKEFFPMEAQLSRLVGQSLWDVSRSSTGNLVEWFLLRKAYERNELAPNKPDERELARRRESYAGGYVKEPERGLWENIVYLDFRSLGPSIIITHNVSPDTLNREGCEEYDVAPQVGHKFCKDFPGFIPSLLGDLLEERQKVKKKMKATIDPIEKKLLDYRQRLIKILANSFYGYYGYAKARWYCKECAESVTAWGRQYLETTIREIEEKFGFKVLYADGDGFLATIPGADAETVKKKAKEFLDYINAKLPGLLELEYEGFYKRGFFVTKAKYAVIDEEDKITTRGLEIVRRDWSEIAKETQARVLEAILKHGDVEEAVRIVKEVTEKLSKYEVPPEKLVIYRQITRDLKDYKATGPHVAVAKRLAARGIKIRPGTVISYIVLKGSGRIGDRAIPFDEFDPAKHKYDAEYYIENQVLPAVERILRAFGYRKEDLRYQKTRQVGLGAWLKPKT
For the molecule B2, the “2′OMe-RNA synthesis activity (in words)” value in test [3] (denaturing PAGE) is “virtually identical synthesis activity”.

B3: 2M+D614N: 2M polymerase bearing the DGLNK mutation D614N (SEQ ID NO: 5) (protein)
chain: MILDTDYITEDGKPVIRIFKKENGEFKIDYDRNFEPYIYALLKDDSAIEDVKKITAERHGTTVRVVRAEKVKKKFLGRPIEVWKLYFTHPQDQPAIRDKIKEHPAVVDIYEYDIPFAKRYLIDKGLIPMEGDEELKMLAFAIATLYHEGEEFAEGPILMISYADEEGARVITWKNIDLPYVDVVSTEKEMIKRFLKVVKEKDPDVLITYNGDNFDFAYLKKRSEKLGVKFILGREGSEPKIQRMGDRFAVEVKGRIHFDLYPVIRRTINLPTYTLEAVYEAIFGQPKEKVYAEEIAQAWETGEGLERVARYSMEDAKVTYELGKEFFPMEAQLSRLVGQSLWDVSRSSTGNLVEWFLLRKAYERNELAPNKPDERELARRRESYAGGYVKEPERGLWENIVYLDFRSLGPSIIITHNVSPDTLNREGCEEYDVAPQVGHKFCKDFPGFIPSLLGDLLEERQKVKKKMKATIDPIEKKLLDYRQRLIKILANSFYGYYGYAKARWYCKECAESVTAWGRQYLETTIREIEEKFGFKVLYADGDGFLATIPGADAETVKKKAKEFLDYINAKLPGLLELEYEGFYKRGFFVTKAKYAVIDEEDKITTRGLEIVRRNWSEIAKETQARVLEAILKHGDVEEAVRIVKEVTEKLSKYEVPPEKLVIYKQITRDLKDYKATGPHVAVAKRLAARGIKIRPGTVISYIVLKGSGRIGDRAIPFDEFDPAKHKYDAEYYIENQVLPAVERILRAFGYRKEDLRYQKTRQVGLGAWLKPKT
For B3, the “2′OMe-RNA synthesis activity (in words)” value in test [3] (denaturing PAGE) is listed as “small enhancement”.

B4: 2M: Tgo polymerase with V93Q, D141A, E143A, Y409G, A485L, I521L, T541G, F545L, K592A, E664K (SEQ ID NO: 3) (protein)
chain: MILDTDYITEDGKPVIRIFKKENGEFKIDYDRNFEPYIYALLKDDSAIEDVKKITAERHGTTVRVVRAEKVKKKFLGRPIEVWKLYFTHPQDQPAIRDKIKEHPAVVDIYEYDIPFAKRYLIDKGLIPMEGDEELKMLAFAIATLYHEGEEFAEGPILMISYADEEGARVITWKNIDLPYVDVVSTEKEMIKRFLKVVKEKDPDVLITYNGDNFDFAYLKKRSEKLGVKFILGREGSEPKIQRMGDRFAVEVKGRIHFDLYPVIRRTINLPTYTLEAVYEAIFGQPKEKVYAEEIAQAWETGEGLERVARYSMEDAKVTYELGKEFFPMEAQLSRLVGQSLWDVSRSSTGNLVEWFLLRKAYERNELAPNKPDERELARRRESYAGGYVKEPERGLWENIVYLDFRSLGPSIIITHNVSPDTLNREGCEEYDVAPQVGHKFCKDFPGFIPSLLGDLLEERQKVKKKMKATIDPIEKKLLDYRQRLIKILANSFYGYYGYAKARWYCKECAESVTAWGRQYLETTIREIEEKFGFKVLYADGDGFLATIPGADAETVKKKAKEFLDYINAKLPGLLELEYEGFYKRGFFVTKAKYAVIDEEDKITTRGLEIVRRDWSEIAKETQARVLEAILKHGDVEEAVRIVKEVTEKLSKYEVPPEKLVIYKQITRDLKDYKATGPHVAVAKRLAARGIKIRPGTVISYIVLKGSGRIGDRAIPFDEFDPAKHKYDAEYYIENQVLPAVERILRAFGYRKEDLRYQKTRQVGLGAWLKPKT
Regarding B4, in test [2] (2′OMe-RNA primer FD-Test2), the “time to reach full length synthesis (+79 nt), 2′OMe-RNA” value is on record as < 10 min; the “time to reach full length synthesis (+79 nt), DNA” value is < 1 min; the “time to reach full length synthesis (+79 nt), MOE-RNA” value is < 30 min. In addition, the “densitometry … 2′OMe-RNA” value in test [2] (setting [5]) turned out to be 90%. Further, in test [2] (setting [6]), the “densitometry … 2′OMe-RNA” value turned out to be 84% and the “densitometry of N40 synthesis yield, MOE-RNA” value amounted to 65%. Moreover, in test [4], the “long-range 2′OMe-RNA synthesis length” value is 750 nt and the “long-range MOE-RNA synthesis length” value came out at 750 nt. Moreover, in test [3] (2′OMe-RNA primer FD), the “time to reach full length synthesis (+72 nt), 2′OMe-RNA” value is listed as < 5 min and the “time to reach full length synthesis (+72 nt), MOE-RNA” value is recorded as < 20 min. Also, in test [3] (denaturing PAGE), the “2′OMe-RNA synthesis activity (in words)” value is “striking increase in 2′OMe-RNA synthesis activity” and the “MOE-RNA synthesis (in words)” value is given as “able to efficiently synthesize MOE-RNA”.
